In patent US7732133B2, “Screening methods for biologically active ligands” (Chugai Seiyaku Kabushiki Kaisha, priority 2000, dated 2010):

Target: T1, chimeric LIF receptor (human LIF receptor and human gp130 / mouse G-CSF receptor) in Ba/F3 cell line LIG (Homo sapiens, UniProt P40189+P42702)
T1 construct: from the 1st to the 833rd amino acid residues; expressed in transfected cells; host or cells: mouse Ba/F3 cells co-transfected with pCV-cLIFR and pCV-cgp130, clone LIG#47 = LIG
T1 sequence (P42702 45-833): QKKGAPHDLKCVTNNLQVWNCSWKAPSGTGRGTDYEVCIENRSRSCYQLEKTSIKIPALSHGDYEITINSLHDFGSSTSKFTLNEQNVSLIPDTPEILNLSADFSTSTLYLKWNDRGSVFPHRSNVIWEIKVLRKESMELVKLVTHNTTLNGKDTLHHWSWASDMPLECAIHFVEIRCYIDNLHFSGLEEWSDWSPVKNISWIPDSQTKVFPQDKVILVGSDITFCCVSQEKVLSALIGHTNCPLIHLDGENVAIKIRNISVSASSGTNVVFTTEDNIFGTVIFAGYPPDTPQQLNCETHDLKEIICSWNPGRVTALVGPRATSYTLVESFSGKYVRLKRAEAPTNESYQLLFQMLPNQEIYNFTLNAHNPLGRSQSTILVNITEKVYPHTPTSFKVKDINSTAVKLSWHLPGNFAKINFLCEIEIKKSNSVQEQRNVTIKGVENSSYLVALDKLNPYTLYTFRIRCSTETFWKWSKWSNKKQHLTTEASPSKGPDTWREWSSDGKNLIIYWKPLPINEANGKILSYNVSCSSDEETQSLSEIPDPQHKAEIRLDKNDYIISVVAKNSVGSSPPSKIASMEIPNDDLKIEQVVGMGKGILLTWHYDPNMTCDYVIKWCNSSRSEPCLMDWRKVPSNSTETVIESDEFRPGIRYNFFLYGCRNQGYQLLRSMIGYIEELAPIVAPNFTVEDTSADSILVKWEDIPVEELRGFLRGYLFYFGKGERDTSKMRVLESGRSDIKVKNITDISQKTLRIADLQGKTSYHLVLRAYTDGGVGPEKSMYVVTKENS
T1 sequence (P40189 23-619): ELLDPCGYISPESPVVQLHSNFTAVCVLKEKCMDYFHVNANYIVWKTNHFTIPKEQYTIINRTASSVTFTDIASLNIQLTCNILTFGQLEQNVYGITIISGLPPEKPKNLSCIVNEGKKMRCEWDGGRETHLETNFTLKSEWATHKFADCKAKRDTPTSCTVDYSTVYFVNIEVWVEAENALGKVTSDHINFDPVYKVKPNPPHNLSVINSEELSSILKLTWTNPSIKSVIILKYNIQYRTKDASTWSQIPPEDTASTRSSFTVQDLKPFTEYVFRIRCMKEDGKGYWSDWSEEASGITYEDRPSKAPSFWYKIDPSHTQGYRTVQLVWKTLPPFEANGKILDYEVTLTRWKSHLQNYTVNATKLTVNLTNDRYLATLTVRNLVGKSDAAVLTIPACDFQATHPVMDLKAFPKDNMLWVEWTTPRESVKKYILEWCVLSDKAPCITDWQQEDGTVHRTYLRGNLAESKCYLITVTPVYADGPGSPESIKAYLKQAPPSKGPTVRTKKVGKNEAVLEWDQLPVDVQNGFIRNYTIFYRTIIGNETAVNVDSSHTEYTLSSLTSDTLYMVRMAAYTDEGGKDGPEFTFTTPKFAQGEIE
T1 sequence (P40223 627-837 partner limits assumed): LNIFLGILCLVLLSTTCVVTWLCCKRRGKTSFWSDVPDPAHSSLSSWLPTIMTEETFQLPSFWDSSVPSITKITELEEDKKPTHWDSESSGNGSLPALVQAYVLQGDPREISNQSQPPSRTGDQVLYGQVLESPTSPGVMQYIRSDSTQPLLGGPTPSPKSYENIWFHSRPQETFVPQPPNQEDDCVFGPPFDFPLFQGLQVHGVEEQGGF
Assay: Growth response of chimeric LIF receptor-expressing Ba/F3 cell line LIG (WST-8)
Assay type: cell-based
Details: 72 hours culture, WST-8 absorbance
Excerpt: Chimeric receptor DNAs were constructed by linking cDNA fragments encoding human LIF receptor (from the 1st to the 833rd amino acid residues; Gearing, D P. et al. […] EMBO J., 10, 2839-2848) and human gp130 (from the 1st to the 619th amino acid residues; Hibi, M. et al. (1990) Cell, 63, 1149-1157) with the transmembrane and intracellular domains (from the 602nd to the 813th amino acid residues; Fukunaga, R. et al. (1990) Cell 61, 341-350) of mouse G-CSF receptor, respectively. These constructs were inserted downstream of the HEF1α promoter of the mammalian expression vector pCV to construct chimeric receptors expression vectors, pCV-cLIFR and pCV-cgp130, respectively. pCV-cLIFR and pCV-cgp130 were linearized with Pvu I (Takara Shuzo), respectively, extracted with phenol and chloroform, and purified by ethanol precipitation. […]
The cells were washed twice with Media A, and were suspended in Media A to give a cell density of 5×10^4 cells/mL. […] After the culture, 10 μL/well WST-8 reagent (Cell Count Reagent SF; Nacalai Tesque) was added, and pre-reaction absorbance at a measurement wavelength of 450 nm and a control wavelength of 655 nm was measured using microplate reader (Model 3550, Bio Rad). The plate was incubated for two hours in a CO2 incubator (CO2 concentration, 5%), and post-reaction absorbance was measured as above. […]

- concentration at which an evident growth reaction was observed: > 10 ng/mL
B1: human CNTF: human ciliary neurotrophic factor (Genzyme) (protein, UniProt P26441 1-200, looked up)
Ciliary neurotrophic factor: MAFTEHSPLTPHRRDLCSRSIWLARKIRSDLTALTESYVKHQGLNKNINLDSADGMPVASTDQWSELTEAERLQENLQAYRTFHVLLARLLEDQQVHFTPTEGDFHQAIHTLLLQVAAFAYQIEELMILLEYKIPRNEADGMPINVGDGGLFEKKLWGLKVLQELSQWTVRSIHDLRFISSHQTGIPARGSHYIANNKKM
